Binding result and EC50 data for six molecules are collected here from patent publication US20200010567A1 (NEURIMMUNE, published 2020).

The target of assay [1] is T1, BSA-coupled (PR)15 DPR protein peptide (bovine, conjugated via a bifunctional linker (SMCC) to bovine serum albumin).
T1 construct: also called BSA-(PR)15
The experiment in a line: Western blot of BSA-coupled peptides. As for the experimental part: (§1) Resolved proteins were then electroblotted (Novex® Semi-Dry Blotter, 1 h, 25V) on methanol-activated PVDF membranes (Immobilon®-P Transfer Membrane, Merck & Cie, Schaffhausen, Switzerland) by the use of Novex® NuPAGE® transfer buffer 2× (Life Technologies Europe B.V., Zug, Switzerland). Non-specific binding sites were blocked overnight at 4° C. (or alternatively for 1 h at room temperature) with PBS/0.1% Tween®-20 containing 2% BSA (Sigma-Aldrich, Buchs, Switzerland) (PBST). […] Membranes were washed three times in PBST for 15 min at RT and then incubated with a donkey anti-human IgG Fcγ-specific antibody conjugated with HRP (1:20000 or 1:10000 dilution, Jackson ImmunoResearch Laboratories, Inc., West Grove, USA) for 1 h at room temperature. Antibody binding was determined by membrane development using ECL and ImageQuant 350 detection (GE Healthcare, Otelfingen, Switzerland).
(§2) The binding specificity of the human-derived antibodies to BSA-coupled C9orf72 dipeptide repeat proteins (GA)₁₅, (GP)₁₅, (GR)₁₅, (PA)₁₅ and (PR)₁₅ was determined by Western blot analysis.
For orientation: In western blotting, separated proteins are transferred to a membrane and probed.

Assay [2] addresses T2, BSA-coupled (PA)15 DPR protein peptide (bovine, UniProt P02769 25-607, conjugated via a bifunctional linker (SMCC) to bovine serum albumin).
T2 construct: also called BSA-(PA)15
The experiment in a line: Western blot of BSA-coupled peptides. As for the experimental part:
as §1, §2

Assay [3] has as its target T3, BSA-coupled (GR)15 DPR protein peptide (bovine, UniProt P02769 25-607, conjugated via a bifunctional linker (SMCC) to bovine serum albumin).
T3 construct: also called BSA-(GR)15
Put plainly: Western blot of BSA-coupled peptides. How it is done: as §1, §2

Assay [4] addresses T4, GA20: H-(GA)20HHHHHH-NH2 (C-terminal amide).
T4 peptide: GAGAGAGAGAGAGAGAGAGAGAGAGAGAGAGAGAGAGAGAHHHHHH
Put plainly: sandwich ELISA, peptide captured by anti-His antibody. From the text:
(§3) In brief, His-tagged dipeptide repeat protein peptides were synthesized and purified by Schafer-N(Copenhagen, Denmark): GA₂₀: H-(GA)₂₀HHHHHH-NH₂; GA₁₀: H-(GA)₁₀HHHHHH-NH₂; GA₆: H-(GA)₆HHHHHH-NH₂; GA₅: H-(GA)₅HHHHHH-NH₂; GA₄: H-(GA)₄HHHHHH-NH₂; GA₃: H-(GA)₃HHHHHH-NH₂; GA₂: H-(GA)₂HHHHHH-NH₂; GP₂₀: H-(GP)₂₀HHHHHH-NH₂; GP₁₀: H-(GP)₁₀HHHHHH-NH₂; GP₆: H-(GP)₆HHHHHH-NH₂; GP₅: H-(GP)₅HHHHHH-NH₂; GP₄: H-(GP)₄HHHHHH-NH₂; GP₃: H-(GP)₃HHHHHH-NH₂; GP₂: H-(GP)₂HHHHHH-NH₂. 96-well microplates (Corning Incorporated, Corning, USA) were coated with monoclonal mouse anti-His tag antibody (Takara Bio Europe/Clontech, Saint-Germain-en-Laye, France) at a concentration of 10 μg/ml in coating buffer (15 mM Na₂CO₃, 35 mM NaHCO₃, pH 9.42) overnight at 4° C. Non-specific binding sites were blocked for 1 h at room temperature with PBS/0.1% Tween®-20 containing 2% BSA (Sigma-Aldrich, Buchs, Switzerland). After a washing step, His-tagged C9orf72 DPR protein peptides at equal concentration of either 1 μM or 5 μM in PBS (pH 7.4) were added for target-trapping by the anti-His tag antibody for 1 h at room temperature. […] Antibody binding to DPR protein peptides was detected by a donkey anti-human IgG Fcγ-specific antibody conjugated with HRP at 1:5000 dilution (Jackson ImmunoResearch Laboratories, Inc., West Grove, USA) for 1 h at RT. Binding was determined by measurement of HRP activity in a standard colorimetric assay. EC₅₀ values were estimated by non-linear regression using GraphPad Prism software (San Diego, USA).
On the technique in general: An ELISA detects its analyte on a solid surface through an enzyme-linked reagent.

Assay [5] concerns the target T5, GA10: H-(GA)10HHHHHH-NH2 (C-terminal amide).
T5 peptide: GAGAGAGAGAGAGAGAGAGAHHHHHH
Described as above.
Description: as §3

The target of assay [6] is T6, (GA)15: H-CHHHHHH(GA)15-OH.
T6 construct: synthetic, not coupled to BSA; also called poly-GA DPR protein peptide
T6 peptide: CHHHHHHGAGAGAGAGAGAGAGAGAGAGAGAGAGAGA
Put plainly: indirect ELISA, coated uncoupled peptide. How it is done: In brief, dipeptide repeat proteins were synthesized and purified by Schafer-N(Copenhagen, Denmark): (GA)₁₅: H-CHHHHHH(GA)₁₅-OH; (GP)₁₅: H-C(GP)₁₅-OH; (GR)₁₅: H-C(GR)₁₅-OH; (PA)₁₅: H-C(PA)₁₅-OH; (PR)₁₅: H—C(PR)₁₅-OH. 96-well microplates (Corning Incorporated, Corning, USA) were coated with dipeptide repeat protein peptides at a concentration of either 5 μg/ml or 20 μg/ml in coating buffer (15 mM Na₂CO₃, 35 mM NaHCO₃, pH 9.42). Non-specific binding sites were blocked for 1 h at room temperature with PBS/0.1% Tween®-20 containing 2% BSA (Sigma-Aldrich, Buchs, Switzerland). Primary antibodies were diluted to the indicated concentrations and incubated for 1 h at room temperature, followed by incubation with a donkey anti-human IgG Fcγ-specific antibody conjugated with HRP (Jackson ImmunoResearch Laboratories, Inc., West Grove, USA). Binding was determined by measurement of HRP activity in a standard colorimetric assay. EC₅₀ values were estimated by non-linear regression using GraphPad Prism software (San Diego, USA). The binding specificity and EC₅₀ of human-derived antibodies for C9orf72 dipeptide repeat protein peptides (GA)₁₅, (GP)₁₅, (GR)₁₅, (PA)₁₅ and (PR)₁₅ were determined by indirect ELISA.

T1 sequence (peptide, as listed by the source limits assumed, chain 1 of 2): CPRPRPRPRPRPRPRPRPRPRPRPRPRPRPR
T1 sequence (P02769 25-607 limits assumed, chain 2 of 2): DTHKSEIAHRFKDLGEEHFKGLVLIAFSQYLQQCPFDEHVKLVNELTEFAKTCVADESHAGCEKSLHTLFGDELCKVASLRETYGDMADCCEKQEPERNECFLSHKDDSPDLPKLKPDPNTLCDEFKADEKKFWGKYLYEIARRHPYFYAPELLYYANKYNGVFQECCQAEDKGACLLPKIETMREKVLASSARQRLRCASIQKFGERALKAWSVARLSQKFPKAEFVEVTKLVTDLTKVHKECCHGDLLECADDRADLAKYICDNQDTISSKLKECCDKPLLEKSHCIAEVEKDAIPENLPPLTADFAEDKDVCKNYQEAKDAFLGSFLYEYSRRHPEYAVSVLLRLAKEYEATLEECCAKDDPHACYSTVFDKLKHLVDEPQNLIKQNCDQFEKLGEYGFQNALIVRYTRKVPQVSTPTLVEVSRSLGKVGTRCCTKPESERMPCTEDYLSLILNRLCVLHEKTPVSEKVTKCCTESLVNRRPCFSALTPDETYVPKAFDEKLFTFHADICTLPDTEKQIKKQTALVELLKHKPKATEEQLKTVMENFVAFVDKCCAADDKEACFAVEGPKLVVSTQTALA
T3 sequence (peptide, as listed by the source limits assumed, chain 1 of 2): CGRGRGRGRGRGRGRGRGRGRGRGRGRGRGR
T3 sequence (P02769 25-607 limits assumed, chain 2 of 2): as the sequence (P02769 25-607 limits assumed, chain 2 of 2) above
T2 sequence (peptide, as listed by the source limits assumed, chain 1 of 2): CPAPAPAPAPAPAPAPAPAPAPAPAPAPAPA
T2 sequence (P02769 25-607 limits assumed, chain 2 of 2): as the sequence (P02769 25-607 limits assumed, chain 2 of 2) above

B1: NI-308.46E9 (antibody, V domains shown)
VH: QVQLQESGPGLVKPSETLSLTCTVSGASISGSTYYWGWIRQPPGKGLEYIGRIYYSGSTYYNPSLKSRATISVDTSKNQLSLTLSSVTAADTAVYYCVRPFYAGSGNSPFDYWGQGTLVTVSS
VL: CEIVLTQSPATVSVSPGERATLSCRASQSVSTNLAWYQQKPGQPPRLLIYGASTRATGIPARFSGSGSGAEFTLTISSLQSEDFVVYYCQQYNNWPPAFGGGTKVEIK
notes: Recombinant complete human IgG1, kappa
Consider B1, for which the binding result in assay [1], in assay [2] and in assay [3] was “no binding” each time.

B2: NI-308.15O7 (antibody, V domains shown)
VH: QVQLVESGGGVVQPGRSLRLSCAASGFTFSNHAMHWVRQAPGKGLEWVAVISYDGENTYYADSIEGRFTISRDNFKNTLFLQMYSLTADDTAMYFCARGGRRGHFTSYYLDYWGQGTLVTVSS
VL: CDIQMTQSPSSLSASVGDRVTITCRASQNIDKYLNWYQQIPGKAPKLLIYAASSLHSGVPSRFSGSGSGTDFSLTISSLQPEDFAIYYCQQSYSSFRTFGQGTKLEIK
With B2, the EC50 (in general, the concentration at which the effect is half-maximal) is 9 nM in assay [4], over 400 nM in assay [5] and 0.48 nM in assay [6].

B3: NI-308.6B11 (antibody, V domains shown)
VH: EVQLVQSGAEVKRPGASVKVSCKVSGYTLTELSMHWVRQAPGKGLEWMGGFDPEDGETVYAQKFQGRVTMTEDTSTDTAYMELSSLRSEDTALYHCATYGSSWHWNEGNEGSYYFDYWGQGTLVTVSS
VL: CDIQMTQSPSSLSASVGDRVTITCQASQDISIYLNWYQQKPGKAPKLLIYDASNLETGVPSRFSGSGSGTDFTFTISGLQPEDVARYYCQQYDDLPITFGQGTRLEIK
notes: as for B1
As for B3, in assay [6], the EC50 is about 38.4 nM.

B4: NI-308.18F7 (antibody, V domains shown)
VH: QVQLQESGPGLVKPSETLSVTCTVSGGSINDYYWNWIRQPAGKGLEWIGRIYASGTINYNPSLQSRVTMSIDTSKNQFSLDLISVSAADTAVYYCARWGQVVGDYYYGMDVWGQGTTVTVSS
VL: EIVLTQSPLSLSVTPGEPASISCKSSQSLQHTNGYNYLDWYLLKPGQSPQLLIFLTSNRASGVPDRFSGSGSGTNFTLKISRVEAEDVGVYYCMEGIQLWTFGQGTKLEIK
notes: as for B1
With B4, the EC50 came out at 0.45 nM in assay [4], 0.34 nM in assay [5] and 1.5 nM in assay [6].

B5: NI-308.5G2 (antibody, V domains shown)
VH: EVQLVQSGADLRNPGASVTVSCTASGYHFADNAINWLRQAPGQRLEWMGWINIYSGNTKYSQNFQGRVTFTRNTSASTAFMHLRSLRSEDTAVYFCARDPDSSGYYLPYFDYWGQGTLVTVSS
VL: DIQLTQSPDSLTLSLGERATINCKSSQSVFYNSNNKNYLAWYQQKPGQPPKLLMYWASTRESGVTDRFSGSGSGTDFTLTITNLQAEDVAVYYCQQFYSSPLTFGGGTKVEIK
notes: as for B1
In turn, B5 returned a concentration for a half-maximal effect (EC50) in assay [6] of about 15.3 nM. Moreover, the binding result in assay [1], in assay [2] and in assay [3] was “no binding” each time.

B6: NI-308.28G1 (antibody, V domains shown)
VH: QVQLQESGPRLVKPSETLSLTCTVAGGSVNSYYWTWIQQSPGKGLEWLGRIYIAGRTNYNPSLTSRIALSVDTSRNQLSLKLTSVTAADTAIYYCARWGAESGDYYYGVDVWGPGTLVTVSS
VL: EIVMTQSPLSLPVTPGEPASISCKSSEGLLHSNGYTYLDWYLQKPGQAPQLLIFLASNRAAGVPDRFSGSGSGTDFTLKISRVEAEDVGVYYCMQAIQSPWTFGPGTKVEIK
notes: as for B1
For B6, the EC50 in assay [4] was 0.4 nM; in assay [5] it was 0.46 nM; in assay [6], 1.1 nM.
